Data from paper PMC9369236, “Unravelling the Adaptation Mechanisms to High Pressure in Proteins” (International Journal of Molecular Sciences, 2022).

Columns and labels:
[1] = target: Phosphomannose isomerase from Thermococcus kodakarensis, expressed from pET-16b (Thermococcus kodakarensis); experiment: SEC; AKTA FPLC, XK50-60 column with 1 L Superdex 75 Prep-Grade resin, calibrated with the GE Healthcare Low Molecular Weight kit; elution at double the expected MW; self-association (dimer)
[2] = target: the molecule itself; experiment: as above

stoichiometry N [1] | Molecule | stoichiometry N [2]
2 | Phosphomannose isomerase from Thermococcus kodakarensis, expressed from pET-16b (enzyme) | 
 | Phosphomannose isomerase from Thermococcus barophilus, expressed from pET-16b (enzyme, Phosphomannose isomerase (PMI) of Thermococcus barophilus, gene TERMP_00744, synthetic codon-optimized gene; Construct for neutron scattering; removal of the tag is not mentioned; also called Tba PMI; PMI) MKAEIKEFIDRGTYRKAPLFEGELPEGSYAQIVEIKPKQTVPKHYHEKQYELFYIISGQAKLGIEEREYDAKPGDIFLVKPKTVHWVVNKKEEPFRLFVIKLNYFGDDSVWLE | 2
